This is an account of results in publication PMC8221791.

Assay [1] deals with recombinant Endothelial Protein C Receptor (EPCR) (UniProt Q9UNN8). Description: static adhesion assay of infected erythrocytes on spots of recombinant protein; recombinant receptor adsorbed as 20 ul spots on petri dishes in PBS overnight at 4°C (two-fold dilutions 10 to 0.31 ug/ml), blocked with Albumax; Percoll-purified trophozoite-stage infected HbAA RBCs, 4x10^6 cells per ml, 1 h at 37°C; washed, fixed, Giemsa-stained, counted per image; four-parameter log-logistic fit.
Chain of UniProt Q9UNN8 (Q9UNN8 18-210): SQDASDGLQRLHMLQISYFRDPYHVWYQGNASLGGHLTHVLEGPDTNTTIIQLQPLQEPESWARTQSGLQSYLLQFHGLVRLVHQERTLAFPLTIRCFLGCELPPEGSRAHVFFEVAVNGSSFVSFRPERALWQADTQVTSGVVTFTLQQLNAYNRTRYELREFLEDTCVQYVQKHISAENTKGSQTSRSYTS

The target is the same in assay [2]. Description: static adhesion assay of infected erythrocytes on spots of recombinant protein; recombinant receptor adsorbed as 20 ul spots on petri dishes in PBS overnight at 4°C (two-fold dilutions 10 to 0.31 ug/ml), blocked with Albumax; Percoll-purified trophozoite-stage infected HbAS (sickle-trait) RBCs, 4x10^6 cells per ml, 1 h at 37°C; washed, fixed, Giemsa-stained, counted per image; four-parameter log-logistic fit.

Assay [3] concerns the target recombinant CD36 (UniProt P16671). In words: static adhesion assay of infected erythrocytes on spots of recombinant protein; recombinant receptor adsorbed as 20 ul spots on petri dishes in PBS overnight at 4°C (two-fold dilutions 10 to 0.31 ug/ml), blocked with Albumax; Percoll-purified trophozoite-stage infected HbAA RBCs, 4x10^6 cells per ml, 1 h at 37°C; washed, fixed, Giemsa-stained, counted per image; four-parameter log-logistic fit.
Chain of UniProt P16671 (P16671 whole entry): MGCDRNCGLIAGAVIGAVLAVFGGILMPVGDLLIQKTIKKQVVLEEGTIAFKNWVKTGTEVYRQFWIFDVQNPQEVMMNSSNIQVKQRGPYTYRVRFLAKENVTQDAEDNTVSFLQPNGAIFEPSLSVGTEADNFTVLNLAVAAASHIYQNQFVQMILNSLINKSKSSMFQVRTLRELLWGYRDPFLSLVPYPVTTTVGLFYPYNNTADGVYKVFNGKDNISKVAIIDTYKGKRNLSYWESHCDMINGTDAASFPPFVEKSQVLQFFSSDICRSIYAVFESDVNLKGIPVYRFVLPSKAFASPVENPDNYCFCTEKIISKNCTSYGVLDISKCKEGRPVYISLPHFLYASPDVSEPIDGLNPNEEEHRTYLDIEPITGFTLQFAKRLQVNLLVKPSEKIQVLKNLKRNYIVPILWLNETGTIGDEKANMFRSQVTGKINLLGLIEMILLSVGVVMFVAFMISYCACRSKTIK

Assay [4] has the same target. Description: static adhesion assay of infected erythrocytes on spots of recombinant protein; recombinant receptor adsorbed as 20 ul spots on petri dishes in PBS overnight at 4°C (two-fold dilutions 10 to 0.31 ug/ml), blocked with Albumax; Percoll-purified trophozoite-stage infected HbAS (sickle-trait) RBCs, 4x10^6 cells per ml, 1 h at 37°C; washed, fixed, Giemsa-stained, counted per image; four-parameter log-logistic fit.

In the case of “IT4var20 PfEMP1 (EPCR-binding P. falciparum Erythrocyte Membrane Protein 1 variant of strain IT4) (natural protein)”, the EPCR spot concentration at estimated 50% adhesion is 0.3 µg/mL in assay [1] and 0.5 µg/mL in assay [2].
“IT4var30 PfEMP1 (CD36-binding P. falciparum Erythrocyte Membrane Protein 1 variant of strain IT4) (natural protein)”: the CD36 spot concentration at estimated 50% adhesion in assay [3] was 2.5 µg/mL; in assay [4], 2.7 µg/mL.
